For 4 substances, EC50; whole cell PDL1/PD1 blocking assay, NFAT luciferase reporter (RLU), EC50 and EC50 (read off the curve) results are on record in US20250326848A1.

In assay [1] the target is human PDL1 expressed on CHO cells (human) (UniProt Q9NZQ7).
Assay [2] concerns the target human CD47 on Jurkat cells (human) (UniProt Q08722). Kind of assay: FACS, whole cell binding to Jurkat cells; bottom panel 'Anti-CD47 Binding to CD47+ cells', nM is from the axis 'Conc. (nM)'.
For assay [3] the target is unchanged. In words: FACS, whole cell binding to Jurkat cells; bottom panel 'Anti-CD47 Binding to CD47+ cells'; fit value printed for the control curve; nM is from the axis.
Assay [4] shares this target. Kind of assay: FACS, whole cell binding to Jurkat cells; middle panel 'Anti-CD47 whole cell binding to Jurkat'; fit value given for a flat control curve; nM is from the axis. In general terms: Flow cytometry measures light scatter and fluorescence of single cells or particles in a stream.
The target is the same in assay [5]. In words: FACS, whole cell binding to Jurkat cells; top panel 'HLX305 Binding to CD47+ Jurkat Cells'; fit value given for a flat control curve; nM is from the axis.
Assay [6] has as its target human CD47 on primary human red blood cells (human) (UniProt Q08722). In words: FACS, whole cell binding to primary human red blood cells, Donor2.
The target of assay [7] is human CD47 on primary human platelets (human) (UniProt Q08722). In words: FACS, binding to primary human platelets, donor1.
Assay [8] has the same target. In words: FACS, binding to primary human platelets, donor 2.
Assay [9] has as its target human CD47 on Jurkat cells (human) (UniProt Q08722). In words: FACS, whole cell binding to Jurkat cells; middle panel 'Anti-CD47 whole cell binding to Jurkat', nM is from the axis 'Conc(nM)'.
The target of assay [10] is human CD47 on primary human red blood cells (human) (UniProt Q08722). In words: FACS, whole cell binding to primary human red blood cells, Donor1.

Chain of human PDL1 expressed on CHO cells (human) (Q9NZQ7 19-290 limits assumed): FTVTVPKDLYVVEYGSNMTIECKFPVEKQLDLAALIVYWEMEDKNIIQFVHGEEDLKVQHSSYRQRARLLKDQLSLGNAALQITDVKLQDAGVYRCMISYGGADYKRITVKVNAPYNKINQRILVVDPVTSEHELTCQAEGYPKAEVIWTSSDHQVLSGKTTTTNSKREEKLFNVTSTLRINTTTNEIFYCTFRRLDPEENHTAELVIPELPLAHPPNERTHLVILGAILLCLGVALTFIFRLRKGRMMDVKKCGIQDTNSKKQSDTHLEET

In assay [1], “Reference Ab 1 (analog of MPDL3280A, synthesized in-house from WO2016007235A1) (antibody)” registered an EC50; whole cell PDL1/PD1 blocking assay, NFAT luciferase reporter (RLU) of 0.0532 nM.

For “PF-07257876 analog (anti-PDL1/CD47 antibody of US 20210179716 A1, synthesized in-house) (bispecific antibody)”, the EC50 in assay [2] is 8.29 nM.

Regarding IgG isotype antibody (negative control), the concentration for a half-maximal effect (EC50) amounted to 50 nM in assay [3], 0.00976 nM in assay [4] and 6.73 nM in assay [5].

Turning to “IBI322 analog (anti-PDL1/CD47 antibody of US 20220227870 A1, synthesized in-house) (bispecific antibody)”, the half-maximal effective concentration (EC50 (read off the curve)) stood at 2 nM in [6], 1 nM in assay [7], 0.8 nM in [8] and 2 nM in assay [10]. Also, the 50% effective concentration (EC50) in assay [9] was determined as 0.682 nM.

As usually defined, the EC50 is the concentration needed to bring the measured effect to its halfway point. A low value points to greater potency. For orientation: EC50 (read off the curve) means the concentration at which the effect is half-maximal. Read a high EC50 (read off the curve) as weaker potency.
